Consider one molecule from paper PMC4022456, “Phosphorylation of a WRKY Transcription Factor by MAPKs Is Required for Pollen Development and Function in Arabidopsis”.

This data set concerns the target WRKY34 (WT) (Arabidopsis thaliana, UniProt O65590 1-568). Kind of data set: EMSA; competed by 250-fold unlabeled W-box tested; 20 mM HEPES pH 7.9, 50 mM KCl, 0.5 mM DTT, 0.1 mM EDTA, 0.1 ug/uL herring sperm DNA, room temperature 30 min; 1 ug protein, 2 pmol probe; 5% native PAGE, 0.5x TBE. Particulars: protein: recombinant; label: 32P 5' end; blunt.

WRKY34 (WT), sequence (O65590 whole entry): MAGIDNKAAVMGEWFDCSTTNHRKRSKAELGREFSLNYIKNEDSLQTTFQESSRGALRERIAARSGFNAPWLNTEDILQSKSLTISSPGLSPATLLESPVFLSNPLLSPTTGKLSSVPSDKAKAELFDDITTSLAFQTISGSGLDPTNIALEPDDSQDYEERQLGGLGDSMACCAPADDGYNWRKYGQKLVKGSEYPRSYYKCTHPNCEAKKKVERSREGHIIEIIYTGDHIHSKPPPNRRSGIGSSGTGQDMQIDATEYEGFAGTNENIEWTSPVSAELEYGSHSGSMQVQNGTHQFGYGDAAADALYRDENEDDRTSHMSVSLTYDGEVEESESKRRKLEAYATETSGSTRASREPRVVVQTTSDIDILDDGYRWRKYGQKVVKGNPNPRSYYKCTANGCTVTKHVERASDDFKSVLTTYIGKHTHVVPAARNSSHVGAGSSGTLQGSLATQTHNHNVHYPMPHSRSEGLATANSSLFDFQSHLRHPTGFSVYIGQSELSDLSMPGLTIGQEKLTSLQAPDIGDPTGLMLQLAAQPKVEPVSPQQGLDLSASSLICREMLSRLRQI

B1: W-box probe (three W boxes) (dsDNA)
DNA 1: CGTTGACCGTTGACCGAGTTGACTTTTTA
DNA 2: TAAAAAGTCAACTCGGTCAACGGTCAACG
In the case of B1, the binding result is given as “binds”.
